Results on 17 sequences are retold here after the DeepSol protein solubility set.

The series in a line: soluble on expression in E. coli; label from the status in PepcDB or PDB records.
“MGSDKIHHHHHHMKKLRELTVEELFESFVLIKNADVRVAKNGKKFIAFTFQDTSGTIDGKYWDASEDEITRFTAGNVVLLNGKREVYQNKPQVKILHMRLATAEEPSQPSLYMERAPLKKEEMVEEINQVIFEITNAHWNRIVRYLMTKYQQEFYEFPAAKRNHHAFANGLAYHTVSMLRLGKAIAKEYTEINTSLLYAGIILHDLGKVLELSGAITTEYTVAGNLIGHLVLVDEEITKACLALKIDDREEDVVVLRHMVLAHHGLLEYGSPVRPRIMEAEILHQIDTMDASIQMMLGAIRQTQPGEYTERIFGLDNRSFYVPKDK”: the “soluble on expression in E. coli” value is on record as “not soluble”.

In the case of “MGSDKIHHHHHHMKKSIVVFEVEGGSDKHFDGHRKDTMPIVNSINDAGWQAEVVYYRPEWTEGLFEYVSENFDGYISRVNPGNIPGGERGYFDLLTRLSEAGLVGMSTPEEMMAYGAKDALVKLSQTDLVPSDTEAYYDVETFHKVFPTSLSFGERVLKQNRGSTGSGIWRVQLVDKELAASIEPGTALPLDTEIKCTEAVDNHTEVRKLGEFMDFCDQYIIGDNGMLVDMRFMPRIVEGEIRILLVGPHPVFVVHKKPAEGGDNFSATLFSGAKYTYDKPEQWQELIDLFADARPVIAEKLGGDNIPLIWTADFMLGDVVDGKDTYVLGEINCSCVGFTSELDMGIQQLVASEAIKRIEEFAQLTV”, the “soluble on expression in E. coli” value is “not soluble”.

Turning to “MGSDKIHHHHHHMKKTPKLSVQLWSVKDAINQDFNGTLKTLSNMGFDGVEFAGELGSYANDAKALKLFLDSIDLKASGAHVSFEQLDQDNFQKTVDFYHQLQVDTLIIGLDDRSWHPQGIEEVVKLLNQLDTKLDPYNIKTGFHNHEHEFDNFKGTTYWDYLAMNTKDSVVLQQDVGWTTYAGKDAVEYVYKYPNRSFTTHYRVCIPEGVKGKQPIIGRDTIDWLRLLKANINVGGTKWIVVEQDVYPNGMSSLAAVALSKNGLEQYIDKL”, the “soluble on expression in E. coli” value is “not soluble”.

“MGSDKIHHHHHHMKKYHYSQAPLPFVGQKRMFASEFRKVLKRFSDRTVFVDLFGGSGLLSHITKRERPDATVIYNDHDNYRERLENISRTNALLSDLRRLSEGIPRHRMLSKKMHGMFLERIRREESTGFVDYLTISSSLLFSGKYARNIGELGKLNFYNNMRLSDYCCEGYLDGLEVVYCDYRELVDRYRDSPDVVFLIDPPYMATDISTYRMDWKLTDYLDVLLVLEGHPFIYFTSGKSPILDFCRWMEEHPETGNPFKGAGISTLTARMNYSSSYTDIMLYKEMTEAA”: the “soluble on expression in E. coli” value was “not soluble”.

As to “MGSDKIHHHHHHMKLEELNSKYNAFITLHTIEEGNDKGKLKDVTFGIKDVILTKDVRTTAGSRVLENYVPQRNAYVVDAILREGGKIIGKTNTHEFALGATNTSSIGGPARNPVDPERISGGSSGGSAVAVKLDMVDVGIGTDTGGSVRIPSSLCGVIGFKPTTGLIPNDGVIPFSWSLDTVGIIVKDNIRLLRRVFDVVLPNEKRKVEIAKLRTRPRLGLFLFDDMEVSRILLKDIYAKLSSHFDIVEVDLPLLRQYGSKTRRTISLAEAASYHKDWISEYSDKYFKDTYTLLLDGMKISATDYIDALRHRRVLIEEYVKVFKNIDFILSPTTKIVAPRISDVISNPLQFREYLIANTELFNVVGAPSISVPFSTLNDLPAGLMISGELYKDGDLLEVAEYILNIVGKH”, the “soluble on expression in E. coli” value was “not soluble”.

“MGSDKIHHHHHHMKLHYKKEHISCTNYKSESYEGFGIGTLTSGSNFNSQTLSVKTNFLIFILEGEVEIIPKEGKIKRVIAQEFFFISALSTYEIQVRVPGRYIYMSFLYNDIKLCEKHMLESYLKEVREASEEVGILSVRHPLNLFLELIDAYLRAGVNCKHLHSIKEKELFIILRTSYSKQEIVNLFHEIIGTNMSFKAAVLLHVDRVNNREELAQAMGMSITDLARKFKVEFGESVYSWLLKQKNKKIIYRLAQPGASVKEIVYEFGFSSAASFNKYCKKNFGNSPRELVRQLKDKHIDNQNLKI”: the “soluble on expression in E. coli” value was “not soluble”.

As for “MGSDKIHHHHHHMKLICSKANLLKGVNIVSKAVPTRTTMAILECILIDASANEIKLMANDMELGIETIIDGTIEERGIIALDAKIFSEIVRKLPDNDVTIETDASFKTVISCEKAKFNIIGKSGDDFSYIPYVERNESIVLSQFTLKEVIRQTIFSIADNDNNKLMTGELFEIEENKLRVVSLDGHRISIRYIEMKNHYDSKKVVVPGKTLQEISKIIPGSADEDVVIYITNNHIVFEFENTTVVSRLIEGEYFKIDQMLSSDYDTKVRINKRELLDCIDRATLLVKEGDKKPIIMNITDGNMELRINSFIGSMNEDIDIDKDGKDIMIGFNPKFFIDALRVIDEEEVNLYMVNPKAPCFIKDDEGKFIYLILPVNFNTAAN”, the “soluble on expression in E. coli” value is reported as “not soluble”.

In the case of “MGSDKIHHHHHHMKLKNDELTVEFKPEGATISSIRDRDGVEYLWQGNPEYWGGQAPVLFPICGSLRNDGATFQVGEKTISGSMPRHGIVRKRTFDLVKHTENEIQFRILSDDEMLKQYPFPFELQLTYRLDGKRLETEYAIRYLGELDAMPFFIGGHPGFNCPLLEDEAFDDYYLEFELEEDCTIPESFPETGLLDFSKRQPMLSKTRILDLNYELFQHDALTFDNLKSRKVALKTKNHQKGLKVSFEDFPFLVVWTTTNKGPFIALEPWSGLSTSLTETDNFIDKTHVTYVEKGEVSRKAFTIEIC”, the “soluble on expression in E. coli” value was “not soluble”.

Consider “MGSDKIHHHHHHMKLKQSESFKMDAFSMRVGDIEGVELDRLHALSLSVGWPHRAEDWQFLRNVGRGVVVLDEIGRVQGSAMWFEHGADFATVGMVITSPRLQTLGAAQWLMKRIFDKVGGRDLRLNATRAARRLYLSLDFLPEKTVYQCQGIARLETTGGPTDLRDVRALDPSDIPAAIALDAAGFGVRRAALVEKLFVHSAGYGLFKHDKLNAFALCRPFGRGHVVGPVVAESDADAVAVVRPHVADNSGSFLRIDTHMANGDFAAFLSHSGMTVFDTVLTMSMGKRLADFAVNGTVAPVTYALASQTLG”, for which the “soluble on expression in E. coli” value is given as “not soluble”.

For “MGSDKIHHHHHHMKLRSWEFYDRIARAYDSMYETPKWKLYHRLIGSFLEEYLKNPCRVLDLGGGTGKWSLFLQERGFEVVLVDPSKEMLEVAREKGVKNVVEAKAEDLPFPSGAFEAVLALGDVLSYVENKDKAFSEIRRVLVPDGLLIATVDNFYTFLQQMIEKDAWDQITRFLKTQTTSVGTTLFSFNSYAFKPEDLDSLEGFETVDIRGIGVMEYPDERISEREETIFRLEQELSRDRNIIWKADHIFFVLKKKRGA”, the “soluble on expression in E. coli” value is on record as “soluble”.

On to “MGSDKIHHHHHHMKLWAIYFEPEDWVGFRETRRFSFSDRVESVFPSSFPFYGAVRTALLMKNQKFDPGDVERAGDVRMFGPFVFENTPEGRKHYFPLPRNIYKTDSGYRVTPIVEIDGVYLPWKPEYKMDSKESTSGGLIELSDLELLRSNTQGVCKFDLVSAEKIFKKETHIGVAFEENRKKVKERMIYSISYYRFYDGGFFMFTDDERTVELVSKLDGVFLGMKSKWSAVEVEELNTTAFDPPDYKNVAVALITPAVFDGGGMPKDKTILGKRVLTTAGIRKQVVSGWDLRENKPKKIYHAVSPGAVYYLEGKVNGHVLNESKFTDFGFGRCIFMKYEKL”, for which the “soluble on expression in E. coli” value was “not soluble”.

Consider “MGSDKIHHHHHHMKMCYNEKRKNMTLRHPGISPTNDSVAKKIFSNPEITWQFIRDMLDLPAKNVTILEGSNIHVLPSLPYSAQDFYTSINVLAELDNGTQVIIEIQVHHQNFFINRLWAYLCSQVNQNLEKIRQREGDTHQSYKHIAPVYAIAIVNSNYFQDDLAFHSFSMREDTTGEALTITNNSQENHLVKMAFLELKKYRETSKDKIRKPWLEFFGNKPFTQQPERAISQAYQLLDYKSWSEEDRKMFSEQRRREEQALLAQDYALEQAEEKGLERGKVEGREEGKLFAFLDMVRQGLLTSEVASQQLGMTVAEFEALL”, for which the “soluble on expression in E. coli” value is given as “not soluble”.

As to “MGSDKIHHHHHHMKMKGIESLKEIFKYGAFSLPVANYLLCEGNIPGDCKRILDVLKLAWKGNFKEAIRRADKAVENSRSETAKYFLLANKLAFLKYTGKTDVNLYRYLKRNLPKMSKSIRDTVIVTLINFEASGIKPLRKVRVWKNDYRKSTLSFLYLSLARREADSGRLSEAVHDYIQAYRLSREVPHPTCIVSSLNDLAWDIREKHPKLAHALSQGAVFWLGYYREEPGNLFGALDTLFVVEKDMDSPSIHSTAHIIVSLPVPEDYLSLLKKAKKFVLDYTGSTYPNTSQLRRYVEKVAWKGKTLSSKGISDILKGKTKMIRADTIRKLLTSGVDTGAPFPVWNEWIKMEIERKYRESSEKLKELPFHQRQILFLTTYMALLDREFLSRKEKLKKAYTLLEDIESFADFMAKDHRTMEFVVSMVKAHPFVEGRKEAVKRALARMKRKRLERFVLRYIEMKESDRKLLDRFLRNYGRYDGVRFGIRLKGPEVVREFAKKYSLKVQPLFAAFWCEEDGRVRRRLERVLKHMVLYNLIEIAILFVMVEK”, the “soluble on expression in E. coli” value is reported as “not soluble”.

For “MGSDKIHHHHHHMKNFVTSERSIFEMEKSTEPAIRVKDGSVVKIKTKDHFNGQIHAKQLHYGELDWKQFSPTTGPIYIEEARPGDLLAITIEKIELLGTEVFLLNGPNIGITDDLLTSNSTRCYKVENNQIIYSEDIHIPIRKTIGLLKTEELNPSKVPTKNGGLLDSSKITEGATIFLPVEKYGASLHVGNVRATTGFGKITATSAEAPAEVTLRLQILKNRTAPTPTIIHYHNLICLASDITIEKATQKTMHNMITLLTESDKMTTEDALFLISLQADFQVCKLCKPNITTSIKLPLDYFPEMPFL”, the “soluble on expression in E. coli” value was “not soluble”.

As to “MGSDKIHHHHHHMKNRDWYTSLVSGLLFPLQERLKDHSTVSVRKALELSQWWNRERLENLQLLKLRHLLAEAEAHVPYYRRIFAEIGFKAAEVSSLADLARLPLLDKPAIRADTEALKSQKARSLRSFNTGGSSGEPLTFYIGRERVSHDVAAKWRATRWWDVDIGDPEMVVWGSPIELGAQDRLRMLRDRLLRTRLFPAFEMSEQKLDRFLGELRAAPPRMFFGYPSALSHIARHAQARGQRMDDLGINVAFVTSERLYDEQRQQISKTFGCPVANGYGGRDAGFIAHECPEGGMHITAEDIIVEIVDRQGVPLPCGEAGEIIVTHLSTAEFPFIRYRTGDIGILDDRICRCGRGLPLLREIQGRSTDFVVAQDGTVMHGLALIYILRELPQISHFKIIQESLNLIHIWVVSGAKLDREITAKIEEEFKARLGQSVEVLIEETTEIPAEKSGKFRYVISKIAGA”, the “soluble on expression in E. coli” value is given as “not soluble”.

As to “MGSDKIHHHHHHMKPERILNVPGAVNFRELGGYQTKFNQTIKWQKLLRSGELSHLTPRTQALLADYGLKYDIDLRSPAEASWSSDKIPAQTIYRFYPVYPIQDNEKSDLPQNKHLKYQAYEQSLYDPYLTMAFSEHSRIAFHQMFVDLLANTNEKESLLFHCAAGKDRTGMAGMLILSALQVPYQTIREDYLLTNLVYSNQDPDELRRQITGKHVDKLIQKMNSVFSVTASSLDHTHDLILDRFGSFDHYFKEALEFSDQDLADLRQIYLE”, the “soluble on expression in E. coli” value is “not soluble”.

Consider “MGSDKIHHHHHHMKPNIITVILAAGASSRFHGAKMLAKVKGNQSLLARSIVSLNKVTATAGIKAPAVVLGAHLNDEIMAITATSHQIINPDWQQGLSSSVKHASQYAIEQQADALLLVLADQVAIDVDDYLHLIERYQQNGLTSCAFYRQDVGVPAIFLAKDFAVLMSIDGDKGAKSILKQHDKNNSLNIISMEQAQFDIDTPADLARWLDNKD”, for which the “soluble on expression in E. coli” value is “not soluble”.
